Tests used:
HLA-A*01:01 = assay: IEDB peptide-MHC binding, purified MHC/direct/fluorescence; filed as Kd, often an IC50 or EC50 that approximates it; ≥ and ≤ were set here for values at or beyond the usual limits of such assays
HLA-A*02:03 = assay: as above
HLA-A*02:11 = assay: as above
HLA-A*02:12 = assay: as above
HLA-A*02:16 = assay: as above
HLA-A*02:19 = assay: as above
HLA-A*03:01 = assay: as above
HLA-A*23:01 = assay: as above
HLA-A*24:03 = assay: as above
HLA-A*26:01 = assay: as above
HLA-A*68:02 [1] = assay: as above
HLA-A*02:01 [2] = assay: IEDB peptide-MHC binding, purified MHC/competitive/fluorescence; filed as Kd, often an IC50 or EC50 that approximates it; ≥ and ≤ were set here for values at or beyond the usual limits of such assays
HLA-A*69:01 [3] = assay: as above
HLA-B*27:03 [4] = assay: as above
HLA-B*35:01 = assay: as above
HLA-B*39:01 [5] = assay: as above
HLA-B*51:01 = assay: as above
HLA-A*29:02 = assay: IEDB peptide-MHC binding, purified MHC/direct/fluorescence; filed as Kd, often an IC50 or EC50 that approximates it; ≥ and ≤ were set here for values at or beyond the usual limits of such assays; settings: source organism: Orthohantavirus andesense
HLA-B*18:01 [6] = assay: IEDB peptide-MHC binding, purified MHC/competitive/fluorescence; filed as Kd, often an IC50 or EC50 that approximates it; ≥ and ≤ were set here for values at or beyond the usual limits of such assays; settings: source organism: Orthohantavirus andesense
HLA-B*46:01 [7] = assay: as above; settings: source organism: Orthohantavirus andesense
HLA-B*57:01 [8] = assay: as above; settings: source organism: Orthohantavirus andesense
HLA-A*69:01 [9] = assay: IEDB peptide-MHC binding, purified MHC/direct/fluorescence; filed as Kd, often an IC50 or EC50 that approximates it; ≥ and ≤ were set here for values at or beyond the usual limits of such assays
HLA-B*15:01 = assay: as above
HLA-B*15:17 [10] = assay: as above
HLA-B*18:01 [11] = assay: as above
HLA-B*27:03 [12] = assay: as above; settings: source organism: Giardia lamblia ATCC 50803
HLA-B*39:01 [13] = assay: as above
HLA-B*46:01 [14] = assay: as above; settings: source organism: Giardia lamblia ATCC 50803
HLA-B*57:01 [15] = assay: as above
HLA-A*02:01 [16] = assay: as above
HLA-A*11:01 = assay: as above
HLA-A*31:01 = assay: as above
HLA-B*07:02 = assay: as above
HLA-B*27:05 = assay: as above
HLA-B*40:01 = assay: as above
HLA-B*44:02 = assay: as above
HLA-B*48:01 = assay: as above
HLA-B*58:01 = assay: as above
HLA-B*08:01 [17] = assay: IEDB peptide-MHC binding, purified MHC/competitive/fluorescence; filed as Kd, often an IC50 or EC50 that approximates it; ≥ and ≤ were set here for values at or beyond the usual limits of such assays; settings: source organism: Brucella canis ATCC 23365
HLA-B*15:09 = assay: as above
HLA-B*08:01 [18] = assay: IEDB peptide-MHC binding, purified MHC/direct/fluorescence; filed as Kd, often an IC50 or EC50 that approximates it; ≥ and ≤ were set here for values at or beyond the usual limits of such assays; settings: source organism: Coxiella burnetii Q321
HLA-A*68:02 [19] = assay: IEDB peptide-MHC binding, purified MHC/competitive/fluorescence; filed as Kd, often an IC50 or EC50 that approximates it; ≥ and ≤ were set here for values at or beyond the usual limits of such assays; settings: source organism: Coxiella burnetii RSA 331
HLA-B*15:17 [20] = assay: as above; settings: source organism: Coxiella burnetii RSA 331
[21] = source organism: Ebola virus - Gabon (1994-1997)
[22] = source organism: Zaire ebolavirus
[23] = source organism: Orthohantavirus andesense
[24] = source organism: Giardia lamblia ATCC 50803
[25] = source organism: Brucella abortus 2308
[26] = source organism: Brucella canis ATCC 23365
[27] = source organism: Coxiella burnetii
[28] = source organism: Coxiella burnetii RSA 331

For TAAIMLASY, the Kd (HLA-A*01:01; [21]) was ≥ 20 µM, the Kd (HLA-A*02:03; [22]) was ≥ 20 µM and the Kd (HLA-A*02:11; [22]) was ≥ 20 µM. The Kd (HLA-A*02:12; [22]) was ≥ 20 µM, the Kd (HLA-A*02:16; [22]) was ≥ 20 µM and the Kd (HLA-A*02:19; [22]) was ≥ 20 µM. For the same sequence, the Kd (HLA-A*03:01; [22]) was ≥ 20 µM, the Kd (HLA-A*23:01; [22]) was ≥ 20 µM and the Kd (HLA-A*24:03; [22]) was ≥ 20 µM. The Kd (HLA-A*26:01; [21]) was 1290 nM, the Kd (HLA-A*68:02 [1]; [22]) was ≥ 20 µM and the Kd (HLA-A*02:01 [2]; [22]) was ≥ 20 µM. The Kd (HLA-A*69:01 [3]; [22]) was ≥ 20 µM, the Kd (HLA-B*27:03 [4]; [22]) was ≥ 20 µM and the Kd (HLA-B*35:01; [22]) was 0.2 nM. For the same sequence, the Kd (HLA-B*39:01 [5]; [22]) was ≥ 20 µM and the Kd (HLA-B*51:01; [22]) was ≥ 20 µM.

DAVEDFLAF was tested, and the Kd (HLA-A*02:03; [23]) was ≥ 20 µM, the Kd (HLA-A*02:11; [23]) was ≥ 20 µM and the Kd (HLA-A*02:12; [23]) was ≥ 20 µM. The Kd (HLA-A*02:16; [23]) was ≥ 20 µM, the Kd (HLA-A*02:19; [23]) was ≥ 20 µM and the Kd (HLA-A*03:01; [23]) was ≥ 20 µM. For the same sequence, the Kd (HLA-A*23:01; [23]) was ≥ 20 µM, the Kd (HLA-A*24:03; [23]) was ≥ 20 µM and the Kd (HLA-A*26:01; [23]) was 12.6 nM. The Kd (HLA-A*29:02) was ≥ 20 µM, the Kd (HLA-A*68:02 [1]; [23]) was ≥ 20 µM and the Kd (HLA-A*02:01 [2]; [23]) was ≥ 20 µM. For the same sequence, the Kd (HLA-A*69:01 [3]; [23]) was ≥ 20 µM, the Kd (HLA-B*18:01 [6]) was ≥ 20 µM and the Kd (HLA-B*27:03 [4]; [23]) was ≥ 20 µM. For the same sequence, the Kd (HLA-B*35:01; [23]) was ≤ 0.1 nM, the Kd (HLA-B*39:01 [5]; [23]) was ≥ 20 µM and the Kd (HLA-B*46:01 [7]) was ≥ 20 µM. For the same sequence, the Kd (HLA-B*51:01; [23]) was ≥ 20 µM and the Kd (HLA-B*57:01 [8]) was ≥ 20 µM.

In the case of VLLISDPGL, the Kd (HLA-A*02:03; [24]) is reported as ≥ 20 µM, the Kd (HLA-A*02:11; [24]) is reported as ≥ 20 µM and the Kd (HLA-A*02:12; [24]) is reported as ≥ 20 µM. For the same sequence, the Kd (HLA-A*03:01; [24]) was ≥ 20 µM, the Kd (HLA-A*24:03; [24]) was ≥ 20 µM and the Kd (HLA-A*26:01; [24]) was ≥ 20000 nM. The Kd (HLA-A*68:02 [1]; [24]) was ≥ 20 µM, the Kd (HLA-A*69:01 [9]; [24]) was ≥ 20 µM and the Kd (HLA-B*15:01; [24]) was ≥ 20 µM. The Kd (HLA-B*15:17 [10]; [24]) was 254 nM, the Kd (HLA-B*18:01 [11]; [24]) was ≥ 20000 nM and the Kd (HLA-B*27:03 [12]) was ≥ 20 µM. The Kd (HLA-B*39:01 [13]; [24]) was ≥ 20 µM, the Kd (HLA-B*46:01 [14]) was ≥ 20 µM and the Kd (HLA-B*57:01 [15]; [24]) was ≥ 20 µM.

With IEVKFHPIL the Kd (HLA-A*01:01; [25]) was ≥ 20 µM, the Kd (HLA-A*02:01 [16]; [25]) was ≥ 20 µM and the Kd (HLA-A*03:01; [25]) was ≥ 20 µM. For the same sequence, the Kd (HLA-A*11:01; [25]) was ≥ 20 µM, the Kd (HLA-A*26:01; source organism: Brucella suis 1330) was ≥ 20000 nM and the Kd (HLA-A*31:01; [25]) was ≥ 20 µM. For the same sequence, the Kd (HLA-A*68:02 [1]; [25]) was ≥ 20 µM, the Kd (HLA-A*69:01 [9]; [25]) was ≥ 20 µM and the Kd (HLA-B*07:02; [25]) was ≥ 20 µM. The Kd (HLA-B*15:01; [25]) was ≥ 20 µM, the Kd (HLA-B*15:17 [10]; [25]) was ≥ 20000 nM and the Kd (HLA-B*18:01 [11]; [25]) was 6 nM. For the same sequence, the Kd (HLA-B*27:05; [25]) was ≥ 20 µM, the Kd (HLA-B*40:01; [25]) was 13 nM and the Kd (HLA-B*44:02; [25]) was ≥ 20 µM. For the same sequence, the Kd (HLA-B*48:01; [25]) was 534 nM, the Kd (HLA-B*57:01 [15]; [25]) was ≥ 20 µM and the Kd (HLA-B*58:01; [25]) was ≥ 20 µM. For the same sequence, the Kd (HLA-B*08:01 [17]) was 811 nM, the Kd (HLA-B*15:09; [26]) was 86.8 nM and the Kd (HLA-B*39:01 [5]; [26]) was 1.06 µM.

With HEGDIVPLF the Kd (HLA-A*01:01; [27]) was ≥ 20 µM, the Kd (HLA-A*02:01 [16]; [27]) was ≥ 20 µM and the Kd (HLA-A*03:01; [27]) was ≥ 20 µM. For the same sequence, the Kd (HLA-A*11:01; [27]) was ≥ 20 µM, the Kd (HLA-A*31:01; [27]) was ≥ 20 µM and the Kd (HLA-A*69:01 [9]; [27]) was ≥ 20 µM. The Kd (HLA-B*07:02; [27]) was ≥ 20 µM, the Kd (HLA-B*08:01 [18]) was ≥ 20 µM and the Kd (HLA-B*15:01; [27]) was 15 µM. For the same sequence, the Kd (HLA-B*27:05; [27]) was ≥ 20 µM, the Kd (HLA-B*39:01 [13]; source organism: Coxiella burnetii Q321) was ≥ 20 µM and the Kd (HLA-B*40:01; [27]) was 312 nM. For the same sequence, the Kd (HLA-B*44:02; [27]) was 6 µM, the Kd (HLA-B*48:01; [27]) was ≥ 20000 nM and the Kd (HLA-B*57:01 [15]; [27]) was ≥ 20 µM. The Kd (HLA-B*58:01; [27]) was ≥ 20 µM, the Kd (HLA-A*68:02 [19]) was ≥ 20 µM and the Kd (HLA-B*15:09; [28]) was ≥ 20000 nM. For the same sequence, the Kd (HLA-B*15:17 [20]) was 644 nM and the Kd (HLA-B*35:01; [28]) was 183 nM.

Reference: the Immune Epitope Database (IEDB)
